Data from US20240167082A1.

Target: CD3 (cell surface marker on Jurkat cells and on Ramos cells) (human) (UniProt P07766)
Test: cell-based or functional assay

Sequence of UniProt P07766 (P07766 23-207): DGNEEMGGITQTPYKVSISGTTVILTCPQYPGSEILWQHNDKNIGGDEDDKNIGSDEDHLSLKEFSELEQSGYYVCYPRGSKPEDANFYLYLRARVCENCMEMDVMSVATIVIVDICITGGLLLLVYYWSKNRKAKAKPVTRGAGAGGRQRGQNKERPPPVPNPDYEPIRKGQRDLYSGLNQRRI

With “TotalSeqB anti-CD3 antibody (Biolegend cat no. 300477; anti-human CD3-totalseqB Ab, clone UCHT1)” the share of drops with labelled cells that cross the Cy5 fluorescence threshold was over 95%, the time at which drops cross the Cy5 fluorescence threshold was 20 to 50 min and the time at which drops cross the Cy5 fluorescence threshold, Jurkat cells in droplets was 20 to 38 min. The time to Cy5 fluorescence in drops with Jurkat cells from a mixed Jurkat and mouse pool was 20 min.
